A protein production outcome set (Wang et al. 2014)

Experiment: label from the status in PepcDB records
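Note: failed if final PepcDB status was selected cloned or expressed and not failed if soluble or beyond.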

| Sequence | protein production |
| --- | --- |
| MADFLLELRSEEIPAGLQKMAVEKLAELLSAKLKEAGINPTKIEKYATPRRIALLMRDLPAKTEAVQEERRGPRADAPEKALAGFLRSTGLTKEELELRETPKGNFYYAHIEKPGQTLIALLGEAIPAIIKTFPWPKSMRWGNFSASSESLRWVRPLKGIVALIDEQLIPIELDGITSGTETKGHPFHHPDVVTLAKASDYPEKMAAAHVMIDFDARVQKITDEARKAAQKAGLTLIEDAALAQENAGLTEWPVPLLGRFDEAYLAVPREVIQLTMRTNQKYFACTDRNQDLAAVFICVADMEAQDGGKEITQGNEKVLSARLADARFFWEQDLKIPLEDWLPRLDSVLFYEGMGSVGDKAKRIAHLSGYIADQIGADRKQAERAGLLAKADLASNMVGEFPELQGVMGGYYAKAGNEAPDVVSAVSGQYQAEAGAGVAAAVSLADRIDSLACFFVRNIRPTGSKDPFALRRAAVQIIQTIIAHQLRLPLTPLFEKAGAGDQIESLLAFITERLKVQQREAGIRYDLIDAVLALGYEDDVIRLLARVQALQSFIESEDGSDLLAGYRRAVNILKGSEASEKGDISQEDIEQPEQDLQKALQAIEAPLEQALKAEDYAAAMTALASLRQPIDQFFDKVIVNHDKAGIRSRRLALLEQIRTAMHQVADFSVVEALTIEASGRKR | failed |
| MADHSLQRRLAAIVVADVVGYSRLMEADEAATLANLRELRSGVIEPAVMRHHGRIFKVMGDGFLIEFGSAVEAVAAALEMQRAATAVEASGDRRLLLRVGVNLGDVIDDGSDVLGDDVNVAARLQTQAAPGGICISANVHGEIDGKISDRFFDAGERYLKNLTRPVHVWHWPDALQSILPLPECPSIAVLPFTNMSGDEADAPFVDGLTEDLITDLSRTAGLFVIARNSVYVYKGKPVDVRLVAQELGVRYVLEGSARRAMGRVRINAQLVDTLAGQHLWADRFDRTVEDVFELQDEVNAKIVEALVGRLTIPTPRNRPKNFEAYDLCVRARLLTEESPQTEREAYMLLQRAVELEPSYAEALGLLAYNRWLAWTHFGEPEDPNRRMAATFAQKAVDLDPNDAGCRYVLGTILAYERRWEESEAAFAKALELDPNHADTWAAMSDMSVLDGRVADGLAQIEKALRLNPYPACWYLCHLGQAQYAARDYEAAAATLRRKDTYRTNSRKFLAATLAQLGHREEARRESELFLIAHPHFTIGHWLSSQPLRDASVRDHFVDGFRKAGLPEM | failed |
| MADKEAAFDDAVEERVINEEYKIWKKNTPFLYDLVMTHALEWPSLTAQWLPDVTRPDGKDFSIHRLVLGTHTSDEQNHLVIASVQLPNDDAQFDASHYDSEKGEFGGFGSVSGKIEIEIKINHEGEVNRARYMPQNPCIIATKTPSCDVLVFDYTKHPSKPDPSGECNPDLRLRGHQKEGYGLSWNPNLSGNLLSASDDHTICLWDISAVPKEGKVVDAKTIFTGHTAVVEDVSWHLLHESLFGSVADDQKLMIWDTRSNNTSKPSHSVDAHTAEVNCLSFNPYSEFILATGSADKTVALWDLRNLKLKLHSFESHKDEIFQVQWSPHNETILASSGTDRRLNVWDLSKIGEEQSPEDAEDGPPELLFIHGGHTAKISDFSWNPNEPWVICSVSEDNIMQVWQMAENIYNDEDTEGSVDPEGQGS | not failed |
| MADKTGTPHPLTEPGVWIERIGGRVFPPHLPALFLDRDGTINVDTDYPSDPAEIVLRPQMLPAIATANRAGIPVVVVTNQSGIARGYFGWSAFAAVNGRVLELLREEGVFVDMVLACAYHEAGVGPLAIPDHPMRKPNPGMLVEAGKRLALDLQRSLIVGDKLADMQAGKRAGLAQGWLVDGEAAVQPGFAIRPLRDSSELGDLLAAIETLGRDNRS | not failed |
| MADLRKAARGRECQVRIPGVCNGNPETSVLAHIRLTGLCGTGTKPPDLIATIACSACHDEIDRRTHFVDAGYAKECALEGMARTQVIWLKEGVIKA | not failed |
| MADLTDALIDAALERGRSAHANEPRAAKARYDRSSARVIVDLENGCTFAFPPRLAQGLEGASDDQLCAVEILGQGYGLHWETLDVDLSLPGLMAGIFGTKAWMAKRAEPPPSAAKDAWSNLPR | not failed |
| MADNYVIWFENLRMTDVERVGGKNASLGEMISQLTEKGVRVPGGFATTAEAYRAFLAHNGLSERISAALAKLDVEDVAELARVGKEIRQWILDTPFPEQLDAEIEAAWNKMVADAGGADISVAVRSSATAEDLPDASFAGQQETFLNINGLDNVKEAMHHVFASLYNDRAISYRVHKGFEHDIVALSAGVQRMVRSDSGASGVMFTLDTESGYDQVVFVTSSYGLGENVVQGAVNPDEFYVFKPTLKAGKPAILRKTMGSKHIKMIFTDKAEAGKSVTNVDVPEEDRNRFSITDEEITELAHYALTIEKHYGRPMDIEWGRDGLDGKLYILQARPETVKSQEEGNRNLRRFAINGDKTVLCEGRAIGQKVGQGKVRLIKDASEMDSVEAGDVLVTDMTDPDWEPVMKRASAIVTNRGGRTCHAAIIARELGIPAVVGCGNATELLKNGQEVTVSCAEGDTGFIYAGLLDVQITDVALDNMPKAPVKVMMNVGNPELAFSFANLPSEGIGLARMEFIINRQIGIHPKALLEFDKQDDELKAEITRRIAGYASPVDFYVDKIAEGVATLAASVYPRKTIVRMSDFKSNEYANLVGGNVYEPHEENPMLGFRGAARYVADNFKDCFALECKALKRVRDEMGLTNVEIMIPFVRTLGEAEAVVKALKENGLERGKNGLRLIMMCELPSNAVLAEQFLQYFDGFSIGSNDMTQLTLGLDRDSGLVSESFDERNPAVKVMLHLAISACRKQNKYVGICGQGPSDHPDFAKWLVEEGIESVSLNPDTVIETWLYLANELNK | not failed |
| MADSKGTASPAKPLQPPSAATPIIERVIKQMESEDGWVSLGEVGKHLSNLASDFDPRTFGFRKLSDLVRKTNAFELEQQNGHLEHHHHHH | failed |
| MADSKKITFEMNESVLTAQFSRLDEMASVVERRFSELKMTIEDVGNADPGSKITESLGGLQSGLGTISSAFGQLGSSSEAITSGFGTAVGSVGGITDAFKNLGSSVQNGTLFSSLSTGIGGMSTMLGGVTGGVQGITNLASGFMELKNHLGGLMSSIGGVGGIMGKLTSPMGLVIIGIVALVAAFTYLMTTNESFRNTVMSVVTQVAQLFGQLVASLMPIIMQIITAVMQIGAALMPIVMQFISFFAQLLAQLMPFINMLIAMLMPVIMQIVQVVMSLVSALLPSIMTVIQGIMSVIQFLIPIIMKIATVVVQIVVTIISYISKIMPIVMMIIGVIISIITTIISYIVVIATTISNVIGKIISFIASVITSIIGIVQPIIGFITNIFSSIVTVIGAAFQMVFAVASKIWNAIMATISGIIDGIKSVITGISTTVSSVFNGVKRIITGVFDGIKGAWGGLTEFVGTIFDGVSNAIQTVVDNVKGFVNVVIRGINSAISLINKIPGVEIGKIPQLISGTTNFQGGFARMNEGGRGEMVVLPSGSQVIPHDATMKYARESARGNKSMLYTNQGTDLARVENLLERLLQKNPVIKMDDKVVSEVVSRNQANSFDQYNYTMGGAAYS | failed |
| MADTSCKLKPLCFRFVSTLKSPIAVITVTYSPGKYLASFLDSLPGATSRDTHVVMADNGSVDGVPEQAAASRSNVEFLSTGGNLGYGTAINIAARSLRARREAGEIDGEFFLVSNPDVVFDEDSIDQLLECAKRHPEAGAVGPLIREADGSAYPSARAVPTLANGIGHALLGAVWKSNPWSAAYRDDEDMDTERTAGWLSGSCLLLRWDAFDRVGGFDERYFMYMEDVDLGDRLVRAGFTNVFCPSAQIIHAKGHVAGKNPENMLPAHHESAYRFQADRLAKPWQAPIRLALRIGLKLRAGVAVGVSKMRTKASLEHHHHHH | failed |
| MAEAVERTDELVREYLLFRGFTHTLRQLDAEIKADKEKGFRVDKIVDQLQQLMQVYDLAALRDYWSYLERRLFSRLEDIYRPTINKLKTSLFRFYLVYTIQTNRNDKAQEFFAKQATELQNQAEWKDWFVLPFLPSPDTNPTFATYFSRQWADTFIISLHNFLSVLFQCMPVPVILNFDAECQRTNQVQEENEVLRQKLFALQAEIHRLKKEEQQQEEEAAALVQHKLPPYVSSMDRLGDSELALVCSQRPASLSQSPRVGFLSSLLPQSKKSPSRLSPAQGPPQAQSSAKKDSFSSQATKGKDSVPGAKDGKSLLSGPVPGEASWTHQRQRRLQDHGKERRELLSTSSSQSQCAERKPEVSGAEAEPCLELHMGPVEVLARVSTAGSEGDRPEQPFIVLSQEEYGEHHSSIMHCRVDCSGRRVASLDVDGVIKVWSFNPIMQTKASSISKSPLLSLEWATKRDRLLLLGSGVGTVRLYDTEAKKNLCEININDDMPRILSLACSPNGASFVCSAAAPSLTSQTDSSAPDIGSKGMNQVPGKLLLWDTKTMKQQLQFSLDPEPIAINCTAFNHNGNLLVTGAADGVIRLFDMQQHECAMSWKAHCGEVYSVEFSCDENAVYSIGEDRKFIQWNIHKSGLKVSESNLPSDATGPFVLSGYSGYKQVQVPRGRLFAFDSEGNYMLTCSATGGLIYKLGSEEKVLENCLSLGGHRAPVVTVDWSTAMDCGTCLTASMDGKIKLTTLLAHKL | failed |
| MAEEKVKDEAMQIMGMFQILPRLVVFDLDYTLWPFYCECRSKREMPSMYPQAKGILSALKEKGIEMAIASRSPTSDIANTFLDKLNIKPMFVAKVSKMGVTSILVGDGVTLGAFRQGLTEFTQNHNSIEKNKQVWRDKYSGKPTSSETDKD | failed |
| MAEGKAMSEFLPFSRPAMGVEELAAVKEVLESGWITTGPKNQALEQAFCQLTGNQHAIAVSSATAGMHITLMALKIGKGDEVITPSLTWVSTLNMISLLGATPVMVDVDRDTLMVTPEAIESAITPRTKAIIPVHYAGAPADIDAIRAIGERYGIAVIEDAAHAVGTYYKGRHIGAKGTAIFSFHAIKNITCAEGGLIVTDNENLARQLRMLKFHGLGVDAYDRQTWGRAPQAEVLTPGYKYNLTDINAAIALTQLVKLEHLNTRRREIAQQYQQALAALPFQPLSLPAWPHVHAWHLFIIRVDEQRCGISRDALMEALKERGIGTGLHFRAAHTQKYYRERFPTLSLPNTEWNSERICSLPLFPDMTTADADHVITALQQLAGQ | failed |
| MAEKQKHDGRVKIGHYVLGDTLGVGTFGKVKIGEHQLTGHKVAVKILNRQKIRSLDVVGKIKREIQNLKLFRHPHIIKLYQVISTPTDFFMVMEYVSGGELFDYICKHGRVEEMEARRLFQQILSAVDYCHRHMVVHRDLKPENVLLDAHMNAKIADFGLSNMMSDGEFLRTSCGSPNYAAPEVISGRLYAGPEVDIWSCGVILYALLCGTLPFDDEHVPTLFKKIRGGVFYIPEYLNRSVATLLMHMLQVDPLKRATIKDIREHEWFKQDLPSYLFPEDPSYDANVIDDEAVKEVCEKFECTESEVMNSLYSGDPQDQLAVAYHLIIDNRRIMNQASEFYLASSPPSGSFMDDSAMHIPPGLKPHPERMPPLIADSPKARCPLDALNTTKPKSLAVKKAKWHLGIRSQSKPYDIMAEVYRAMKQLDFEWKVVNAYHLRVRRKNPVTGNYVKMSLQLYLVDNRSYLLDFKSIDDEVVEQRSGSSTPQRSCSAAGLHRPRSSFDSTTAESHSLSGSLTGSLTGSTLSSVSPRLGSHTMDFFEMCASLITTLAR | failed |
| MAELILNQRPYPRDLGKIVCVGRNYAAHAKELNNPIPSSPILFIKPASSAVPFGPVFSIPKDQGSVHHELEIAILIGKALSRASTEQVAESIAGIGLGLDLTLRDVQDQLKEKGHPWERAKSFDGACPLTEFVAVNLASEDEWQAIGLTLEKNGQFQQQGSSAEMLFPILPLIAHMSEHFSLQPGDVILTGTPAGVGPLEVGDSLSAKLSLEDNVLLTCDGVVI | not failed |
| MAENLRDSVVHRDIALLSFCAPVMLERLPSSFVKHIELWLSAAGLGIIFGVGYASGPSGPAFWRLIAVIAVGIGVVHGFIFWAVRRRQRQVRRQSIREIQQMLSDVLKNKLAAINMYLPEDADEEMVKQELDGVRASIEDIADEIENISEESIEGWKEHYSGAVERTTNL | failed |
